The chains are these.
B1: glmS ribozyme (parent)
chain: AUAAAAGCGCCAGAACUACAGAAAUGUAGUUGACGAGGAGGAGGUUUAUCGAAUUUUCGGCGGAUGCCUCCAAA

Holding throughout (conditions): with glucosamine-6-phosphate
In data set [1] the parent is B1. Description: self-cleavage kobs at 40 uM GlcN6P; higher = faster cleavage; RNA array. Summed up:
(§1)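 Over ~14 h at 37 °C, tiles were imaged as glucosamine-6-phosphate (40 μM to 10 mM) in HEPES/KCl/Mg(OAc)2 buffer flowed across sequenced MiSeq chips. The chips carried barcoded ribozyme variants transcribed in situ by E. coli RNA polymerase and tracked with a hybridised Cy3 probe. After normalisation to baseline and to non-cleaving reference variants, one- or two-exponential decay fits of per-tile medians gave kobs. kcat and KM followed from weighted Michaelis–Menten fits across concentrations.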

In data set [2] the parent is B1. The data set can be described thus: self-cleavage kobs at 10000 uM GlcN6P; higher = faster cleavage; RNA array. The procedure, abridged: as §1
Data set [3] covers variants of B1. Description: self-cleavage kobs at 160 uM GlcN6P; higher = faster cleavage; RNA array. Summed up: as §1
In data set [4] the parent is B1. The data set can be described thus: self-cleavage kobs at 640 uM GlcN6P; higher = faster cleavage; RNA array. Summed up: as §1
Variants of B1 are the subject of data set [5]. Description: self-cleavage kobs at 2500 uM GlcN6P; higher = faster cleavage; RNA array. The procedure, abridged:
as §1

± gives the standard error. Variants at the floor of the assay were thinned out.

In the case of U30C G51C, the “self-cleavage kobs at 40 uM GlcN6P” value in the data set with glucosamine-6-phosphate [1] is under 1e-05 s⁻¹. Moreover, the “self-cleavage kobs at 10000 uM GlcN6P” value with glucosamine-6-phosphate [2] is under 1e-05 s⁻¹.
Consider C8U C16U C50G G60A G66U, for which, in the data set with glucosamine-6-phosphate [1], the “self-cleavage kobs at 40 uM GlcN6P” value came out at 0.000197 ± 6.5e-05 s⁻¹. Moreover, the “self-cleavage kobs at 160 uM GlcN6P” value in the data set with glucosamine-6-phosphate [3] was determined as 9.7e-05 ± 4.4e-05 s⁻¹. Moreover, the “self-cleavage kobs at 10000 uM GlcN6P” value with glucosamine-6-phosphate [2] came to 0.000101 ± 2.7e-05 s⁻¹.
Take C11A A39C G62C A64U C67G: the “self-cleavage kobs at 40 uM GlcN6P” value with glucosamine-6-phosphate [1] is under 1e-05 s⁻¹.
As for G66A C70A, in the data set with glucosamine-6-phosphate [1], the “self-cleavage kobs at 40 uM GlcN6P” value worked out at 8.27e-05 ± 1.4e-05 s⁻¹. In addition, the “self-cleavage kobs at 160 uM GlcN6P” value with glucosamine-6-phosphate [3] was 7.28e-05 ± 2.8e-05 s⁻¹. For the same variant, the “self-cleavage kobs at 640 uM GlcN6P” value with glucosamine-6-phosphate [4] is 0.000708 ± 0.00013 s⁻¹. The “self-cleavage kobs at 2500 uM GlcN6P” value with glucosamine-6-phosphate [5] was found to be 0.00036 ± 8.5e-05 s⁻¹. Besides, the “self-cleavage kobs at 10000 uM GlcN6P” value in the data set with glucosamine-6-phosphate [2] amounted to 0.000947 ± 0.00015 s⁻¹.
For the variant A12U G32U A53G, the “self-cleavage kobs at 40 uM GlcN6P” value with glucosamine-6-phosphate [1] was under 1e-05 s⁻¹. Also, the “self-cleavage kobs at 2500 uM GlcN6P” value with glucosamine-6-phosphate [5] was found to be 0.000144 ± 3.6e-05 s⁻¹. For the same variant, the “self-cleavage kobs at 10000 uM GlcN6P” value with glucosamine-6-phosphate [2] was 0.000231 ± 6.4e-05 s⁻¹.
As to G35C A48G A52C C70G, the “self-cleavage kobs at 40 uM GlcN6P” value with glucosamine-6-phosphate [1] is under 1e-05 s⁻¹.
In the case of G38U A42U U49A G60U, in the data set with glucosamine-6-phosphate [1], the “self-cleavage kobs at 40 uM GlcN6P” value was under 1e-05 s⁻¹. Moreover, in the data set with glucosamine-6-phosphate [2], the “self-cleavage kobs at 10000 uM GlcN6P” value was under 1e-05 s⁻¹.
U45A G60U C68G C70U: the “self-cleavage kobs at 40 uM GlcN6P” value with glucosamine-6-phosphate [1] was under 1e-05 s⁻¹.
Regarding G37C G62C, the “self-cleavage kobs at 40 uM GlcN6P” value in the data set with glucosamine-6-phosphate [1] was under 1e-05 s⁻¹. The “self-cleavage kobs at 640 uM GlcN6P” value in the data set with glucosamine-6-phosphate [4] is under 1e-05 s⁻¹. Further, the “self-cleavage kobs at 10000 uM GlcN6P” value with glucosamine-6-phosphate [2] was under 1e-05 s⁻¹.
As for C8U A33G, the “self-cleavage kobs at 40 uM GlcN6P” value in the data set with glucosamine-6-phosphate [1] was under 1e-05 s⁻¹. The “self-cleavage kobs at 160 uM GlcN6P” value in the data set with glucosamine-6-phosphate [3] was under 1e-05 s⁻¹. Besides, the “self-cleavage kobs at 640 uM GlcN6P” value with glucosamine-6-phosphate [4] was under 1e-05 s⁻¹. Further, the “self-cleavage kobs at 10000 uM GlcN6P” value in the data set with glucosamine-6-phosphate [2] was under 1e-05 s⁻¹.
For G29U G35A A48G A53C, the “self-cleavage kobs at 40 uM GlcN6P” value with glucosamine-6-phosphate [1] is under 1e-05 s⁻¹. Also, the “self-cleavage kobs at 640 uM GlcN6P” value with glucosamine-6-phosphate [4] is under 1e-05 s⁻¹.
Turning to G35U C61U U65G, in the data set with glucosamine-6-phosphate [1], the “self-cleavage kobs at 40 uM GlcN6P” value is under 1e-05 s⁻¹.
With G7A G13U A14C A15U G35A U55C A64G C71A, the “self-cleavage kobs at 40 uM GlcN6P” value in the data set with glucosamine-6-phosphate [1] was under 1e-05 s⁻¹. In addition, the “self-cleavage kobs at 10000 uM GlcN6P” value in the data set with glucosamine-6-phosphate [2] is under 1e-05 s⁻¹.
Consider G51U A53C C67G, for which, in the data set with glucosamine-6-phosphate [1], the “self-cleavage kobs at 40 uM GlcN6P” value was under 1e-05 s⁻¹.
Take C58G C68G: the “self-cleavage kobs at 40 uM GlcN6P” value in the data set with glucosamine-6-phosphate [1] stood at 3.25e-05 ± 1.1e-05 s⁻¹. The “self-cleavage kobs at 160 uM GlcN6P” value with glucosamine-6-phosphate [3] stood at 6.63e-05 ± 1.4e-05 s⁻¹. The “self-cleavage kobs at 640 uM GlcN6P” value with glucosamine-6-phosphate [4] came to 9.11e-05 ± 1.1e-05 s⁻¹. Besides, the “self-cleavage kobs at 2500 uM GlcN6P” value with glucosamine-6-phosphate [5] is 9.87e-05 ± 1.7e-05 s⁻¹. In the data set with glucosamine-6-phosphate [2], the “self-cleavage kobs at 10000 uM GlcN6P” value stood at 1.82e-05 ± 7.1e-06 s⁻¹.
In the case of C8G C11G U30C C34G G44U G62A, in the data set with glucosamine-6-phosphate [1], the “self-cleavage kobs at 40 uM GlcN6P” value is under 1e-05 s⁻¹. Further, in the data set with glucosamine-6-phosphate [2], the “self-cleavage kobs at 10000 uM GlcN6P” value was under 1e-05 s⁻¹.
As to A6C C34A, in the data set with glucosamine-6-phosphate [1], the “self-cleavage kobs at 40 uM GlcN6P” value was under 1e-05 s⁻¹. In addition, in the data set with glucosamine-6-phosphate [3], the “self-cleavage kobs at 160 uM GlcN6P” value was under 1e-05 s⁻¹. The “self-cleavage kobs at 640 uM GlcN6P” value with glucosamine-6-phosphate [4] is under 1e-05 s⁻¹. Also, the “self-cleavage kobs at 2500 uM GlcN6P” value with glucosamine-6-phosphate [5] is under 1e-05 s⁻¹. Also, in the data set with glucosamine-6-phosphate [2], the “self-cleavage kobs at 10000 uM GlcN6P” value is under 1e-05 s⁻¹.
For the variant C11A A14U A36U U46A, in the data set with glucosamine-6-phosphate [1], the “self-cleavage kobs at 40 uM GlcN6P” value is under 1e-05 s⁻¹. Moreover, the “self-cleavage kobs at 2500 uM GlcN6P” value with glucosamine-6-phosphate [5] was under 1e-05 s⁻¹. Moreover, the “self-cleavage kobs at 10000 uM GlcN6P” value in the data set with glucosamine-6-phosphate [2] is under 1e-05 s⁻¹.
As for G51C A53U, in the data set with glucosamine-6-phosphate [1], the “self-cleavage kobs at 40 uM GlcN6P” value is under 1e-05 s⁻¹. The “self-cleavage kobs at 160 uM GlcN6P” value with glucosamine-6-phosphate [3] was under 1e-05 s⁻¹. Further, in the data set with glucosamine-6-phosphate [5], the “self-cleavage kobs at 2500 uM GlcN6P” value was under 1e-05 s⁻¹.
In the case of G51C A53C, the “self-cleavage kobs at 40 uM GlcN6P” value in the data set with glucosamine-6-phosphate [1] was under 1e-05 s⁻¹. Further, in the data set with glucosamine-6-phosphate [4], the “self-cleavage kobs at 640 uM GlcN6P” value is under 1e-05 s⁻¹.
Consider U30A U56A, for which, in the data set with glucosamine-6-phosphate [1], the “self-cleavage kobs at 40 uM GlcN6P” value amounted to 9.28e-05 ± 1.4e-05 s⁻¹. Besides, the “self-cleavage kobs at 10000 uM GlcN6P” value with glucosamine-6-phosphate [2] was 0.00496 ± 0.00075 s⁻¹.
With A42U U65C, in the data set with glucosamine-6-phosphate [1], the “self-cleavage kobs at 40 uM GlcN6P” value is under 1e-05 s⁻¹. Besides, the “self-cleavage kobs at 160 uM GlcN6P” value with glucosamine-6-phosphate [3] is under 1e-05 s⁻¹. Also, the “self-cleavage kobs at 640 uM GlcN6P” value in the data set with glucosamine-6-phosphate [4] was under 1e-05 s⁻¹. Also, the “self-cleavage kobs at 2500 uM GlcN6P” value with glucosamine-6-phosphate [5] is under 1e-05 s⁻¹. The “self-cleavage kobs at 10000 uM GlcN6P” value with glucosamine-6-phosphate [2] is under 1e-05 s⁻¹.
Take A14U G62A: the “self-cleavage kobs at 40 uM GlcN6P” value with glucosamine-6-phosphate [1] is under 1e-05 s⁻¹. Moreover, the “self-cleavage kobs at 640 uM GlcN6P” value with glucosamine-6-phosphate [4] is under 1e-05 s⁻¹. Besides, in the data set with glucosamine-6-phosphate [5], the “self-cleavage kobs at 2500 uM GlcN6P” value was under 1e-05 s⁻¹. In the data set with glucosamine-6-phosphate [2], the “self-cleavage kobs at 10000 uM GlcN6P” value was under 1e-05 s⁻¹.
For the variant G41U G60U U69C, the “self-cleavage kobs at 40 uM GlcN6P” value in the data set with glucosamine-6-phosphate [1] was under 1e-05 s⁻¹. Besides, in the data set with glucosamine-6-phosphate [2], the “self-cleavage kobs at 10000 uM GlcN6P” value is under 1e-05 s⁻¹.

The values above are taken from the supplement of paper PMC7125110.
